Target: T1, Rop (UniProt P03051 1-63)
T1 sequence: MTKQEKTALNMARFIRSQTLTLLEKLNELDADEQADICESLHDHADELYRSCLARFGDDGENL
Test: EMSA

B1: RNA1-U6/RNA2-WT kissing dimer (structured_RNA)
RNA 1: GGCAGCUUUUUUUUGGUAGUUUUUUGCUGCC
RNA 2: GCACCGCUACCAACGGUGC
binding result: binds

Source: paper PMC7043357
